Where no end group is shown, it is not given here.

This is an account of results in patent US20140170239A1 (VRIJE UNIVERSITEIT BRUSSEL, published 2014).

The labels stand for the following.
B1: FLAG-tagged Cyclin-I2 (other, human, UniProt Q6ZMN8 1-369, looked up)
chain: MASGAQLPPQPSSSEVSAVQSPGGRPGAGLEETALGVPLPPSPGEAPLPRSNRSRCPGTRQPGAASLHAASAAVPVRPRRGTAPAGKTADAVPAAAPEQAPRPAPQSRKPRNLEGDLDERRLLCHLQLAQDREARLWRGGKPQDEICDAFEEVVLWLLRLQNTFYFSQSTFNLALTIFGRLLISVKVKEKYLHCATITSLRLAAKVNEEEEFIPQVKDFTKHYGSDYSPNELLRMELAILDRLHWDLYIGTPLDFLTIFHALVVLSWPHVLELLPQRNPSLHVASLTRQLQHCMAGHQLLQFKGSTLALVIITLELERLMPGWCAPISDLLKKAQVGDMQYSCCKELVMQQLRSLQSSSCTDNFVSPAN
notes: also called CCNI2_HUMAN; CCNI2
B2: CC132_HUMAN peptide ILTNTTL (peptide)
peptide: ILTNTTL
notes: spot-synthesized on membrane; also called position Nr 21
B3: P73_HUMAN peptide ILIIITL (peptide)
peptide: ILIIITL
notes: spot-synthesized on membrane; also called p73β; position Nr 35
B4: P63_HUMAN peptide ILIIVTL (peptide)
peptide: ILIIVTL
notes: spot-synthesized on membrane; also called p63β; position Nr 16
B5: METH_HUMAN peptide ILTIGTG (peptide)
peptide: ILTIGTG
notes: spot-synthesized on membrane; also called methionine synthase (METH) segment; position Nr 38
B6: CASP8_HUMAN peptide ILTILTE (peptide)
peptide: ILTILTE
notes: spot-synthesized on membrane; also called caspase-8 (CASP8) segment; position Nr 11
B7: DHX33_HUMAN peptide ILTIVSL (peptide)
peptide: ILTIVSL
notes: spot-synthesized on membrane; also called position Nr 4
B8: CCNI2_HUMAN peptide ALVIITL (peptide)
peptide: ALVIITL
notes: spot-synthesized on membrane; also called position Nr 23
B9: CPNE2_HUMAN peptide ILLIITD (peptide)
peptide: ILLIITD
notes: spot-synthesized on membrane; also called Copine-2 (CPNE2) segment; position Nr 42
B10: ANXA6_HUMAN peptide ILDIITS (peptide)
peptide: ILDIITS
notes: spot-synthesized on membrane; also called annexin-6 peptide fragment; position Nr 29
B11: SPEF2_HUMAN peptide ILSIDTL (peptide)
peptide: ILSIDTL
notes: spot-synthesized on membrane; also called position Nr 54
B12: TAGAP_HUMAN peptide ILTILCL (peptide)
peptide: ILTILCL
notes: spot-synthesized on membrane; also called position Nr 5
B13: LRC40_HUMAN peptide IHAIITL (peptide)
peptide: IHAIITL
notes: spot-synthesized on membrane; also called position Nr 27
B14: CBPC3_HUMAN peptide ILTITTP (peptide)
peptide: ILTITTP
notes: spot-synthesized on membrane; also called position Nr 39
B15: CT132_HUMAN peptide IKSIITL (peptide)
peptide: IKSIITL
notes: spot-synthesized on membrane; also called position Nr 45
B16: CYTIP_HUMAN peptide LLTIETL (peptide)
peptide: LLTIETL
notes: spot-synthesized on membrane; also called position Nr 24
B17: RFC5_HUMAN peptide ILTEIHL (peptide)
peptide: ILTEIHL
notes: spot-synthesized on membrane; also called position Nr 34
B18: HEAT1_HUMAN peptide ILTKISL (peptide)
peptide: ILTKISL
notes: spot-synthesized on membrane; also called position Nr 13
B19: MP2K4_HUMAN peptide ILGKITL (peptide)
peptide: ILGKITL
notes: spot-synthesized on membrane; also called position Nr 17
B20: NOL11_HUMAN peptide ILTKYTL (peptide)
peptide: ILTKYTL
notes: spot-synthesized on membrane; also called position Nr 37
B21: MYST3_HUMAN peptide ILTKPTL (peptide)
peptide: ILTKPTL
notes: spot-synthesized on membrane; also called position Nr 28
B22: CND2_HUMAN peptide ILTKSTL (peptide)
peptide: ILTKSTL
notes: spot-synthesized on membrane; also called position Nr 51
B23: DHX29_HUMAN peptide ILQIITE (peptide)
peptide: ILQIITE
notes: spot-synthesized on membrane; also called position Nr 44
B24: PK3C3_HUMAN peptide ILQIISL (peptide)
peptide: ILQIISL
notes: spot-synthesized on membrane; also called position Nr 18
B25: TRI18_HUMAN peptide CLTIITG (peptide)
peptide: CLTIITG
notes: spot-synthesized on membrane; also called position Nr 26
B26: P53_HUMAN peptide ILTIITL (immobilised spot) (peptide)
peptide: ILTIITL
notes: spot-synthesized on membrane; also called p53β; position Nr 1
B27: CGRF1_HUMAN peptide ITTGITL (peptide)
peptide: ITTGITL
notes: spot-synthesized on membrane; also called CGRF1 segment; position Nr 30
B28: VATA_HUMAN peptide IYTGITL (peptide)
peptide: IYTGITL
notes: spot-synthesized on membrane; also called position Nr 14
B29: CD041_HUMAN peptide ITTVITL (peptide)
peptide: ITTVITL
notes: spot-synthesized on membrane; also called position Nr 8
B30: CXL11_HUMAN peptide IEVIITL (peptide)
peptide: IEVIITL
notes: spot-synthesized on membrane; also called position Nr 32
B31: ZN830_HUMAN peptide ILTIKEL (peptide)
peptide: ILTIKEL
notes: spot-synthesized on membrane; also called position Nr 31
B32: KV122_HUMAN peptide ILTISSL (peptide)
peptide: ILTISSL
notes: spot-synthesized on membrane; also called position Nr 22
B33: PTPC1_HUMAN peptide IKTIINL (peptide)
peptide: IKTIINL
notes: spot-synthesized on membrane; also called position Nr 33
B34: CM031_HUMAN peptide KLTIITS (peptide)
peptide: KLTIITS
notes: spot-synthesized on membrane; also called position Nr 53
B35: AL2SA_HUMAN peptide GLTIPTL (peptide)
peptide: GLTIPTL
notes: spot-synthesized on membrane; also called position Nr 52
B36: Control peptide RRPILTIITLEDGS (peptide)
peptide: RRPILTIITLEDGS
notes: spot-synthesized on membrane; longer peptide that holds ILTIITL; also called position Nr 2
B37: DYH3_HUMAN peptide ILTFKTL (peptide)
peptide: ILTFKTL
notes: spot-synthesized on membrane; also called position Nr 12
B38: RTEL1_HUMAN peptide ILTSGTL (peptide)
peptide: ILTSGTL
notes: spot-synthesized on membrane; also called position Nr 36
B39: DIP2B_HUMAN peptide ILTSQTL (peptide)
peptide: ILTSQTL
notes: spot-synthesized on membrane; also called position Nr 20
B40: SMG1_HUMAN peptide ILTLIEL (peptide)
peptide: ILTLIEL
notes: spot-synthesized on membrane; also called position Nr 41
B41: BCL6B_HUMAN peptide ILTDVTL (peptide)
peptide: ILTDVTL
notes: spot-synthesized on membrane; also called position Nr 40
B42: RTTN_HUMAN peptide ILTICTK (peptide)
peptide: ILTICTK
notes: spot-synthesized on membrane; also called position Nr 47
B43: KLH32_HUMAN peptide ILCDITL (peptide)
peptide: ILCDITL
notes: spot-synthesized on membrane; also called position Nr 43
B44: GCDH_HUMAN peptide MLTEITL (peptide)
peptide: MLTEITL
notes: spot-synthesized on membrane; also called position Nr 19
B45: SCC4_HUMAN peptide IQTISTL (peptide)
peptide: IQTISTL
notes: spot-synthesized on membrane; also called position Nr 55
B46: BN3D2_HUMAN peptide ALTFITL (peptide)
peptide: ALTFITL
notes: spot-synthesized on membrane; also called position Nr 7
B47: TAF4B_HUMAN peptide ILKQITL (peptide)
peptide: ILKQITL
notes: spot-synthesized on membrane; also called position Nr 49
B48: CD2A1_HUMAN peptide ILRQITL (peptide)
peptide: ILRQITL
notes: spot-synthesized on membrane; also called position Nr 56
B49: BPA1_HUMAN peptide ILKNITL (peptide)
peptide: ILKNITL
notes: spot-synthesized on membrane; also called position Nr 46
B50: KV117_HUMAN peptide TLTISTL (peptide)
peptide: TLTISTL
notes: spot-synthesized on membrane; also called position Nr 15
B51: BPTF_HUMAN peptide VLTISTL (peptide)
peptide: VLTISTL
notes: spot-synthesized on membrane; also called position Nr 10
B52: MX2_HUMAN peptide DLTIIDL (peptide)
peptide: DLTIIDL
notes: spot-synthesized on membrane; also called position Nr 50
B53: PRA10_HUMAN peptide FLTIFTL (peptide)
peptide: FLTIFTL
notes: spot-synthesized on membrane; also called position Nr 25
B54: LONF2_HUMAN peptide ILVIITR (peptide)
peptide: ILVIITR
notes: spot-synthesized on membrane; also called position Nr 48
B55: PDS5A_HUMAN peptide IVTIITA (peptide)
peptide: IVTIITA
notes: spot-synthesized on membrane; also called position Nr 3
B56: PGTA_HUMAN peptide LLTIILL (peptide)
peptide: LLTIILL
notes: spot-synthesized on membrane; also called position Nr 9
B57: EPMIP_HUMAN peptide LLTIINL (peptide)
peptide: LLTIINL
notes: spot-synthesized on membrane; also called position Nr 6
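Throughout, for Binding intensity (normalized): Membrane-bound synthesized peptide spots exposed to the biotinylated p53 aggregation-prone peptide, bound material revealed via streptavidin-HRP and chemiluminescence, spot signal reflecting binding.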

The first test concerns the target T1, HA-tagged wild-type p53 (human, UniProt P04637 1-393).
T1 construct: range 1-393; expressed in cells, tested in cell lysate; also called WT p53; p53-HA
In words: co-IP, HeLa cells, anti-FLAG IP, anti-HA blot.
Procedure: HeLa (Human epithelial carcinoma) cells were cultured in DMEM supplemented with 10% fetal calf serum (Gibco), L-glutamine (4 mM), penicillin (100 U/ml), and streptomycin (100 U/ml). Proliferating cell cultures were maintained in a 5% CO2-humidified incubator at 37° C. […] The complex of DNA and FuGENE HD was prepared in 500 μL DMEM and incubated for 20 minutes before adding to cells. For stable transfection, DMEM medium containing 10% fetal calf serum and 500 μg/mL G418 was used to select colonies that carried the transfected vector for six weeks, and expression of the vector was validated by Western blot. Stably transfected cells were maintained in medium containing 250 μg/mL G418 for further analysis. Transfection of siRNA for p53 (Santa Cruz) was performed using X-tremeGENE siRNA transfection reagent (Roche) according to the manufacturer's instructions.
Hela cells co-transfected with mutant HA-p53 and FLAG-tagged proteins were lysed with RIPA buffer (Thermo) with DNase and protease inhibitors (Roche) for 30 minutes on ice. […] After incubation at 21° C. for 1 hour, the agarose beads were rinsed with 200 μL TBS three times, and subsequently eluted by heating at 95° C. in presence of SDS (without DTT). The co-immunoprecipitated p53 was detected with mouse anti-HA antibody or anti-p53.
Consider B1, for which the binding result is “no binding”.

For the next test, the target named is T2, biotinylated p53β peptide (human, also: biotinylated, site not given here).
T2 construct: also called biotinylated p53-aggregating peptide
T2 peptide: ILTIITL
Kind of test: peptide-binding assay: peptide spots on membrane, biotinylated p53β peptide, streptavidin-HRP.
Take B2: the “Coaggregation (peptide binding)” value was 77%.

Consider B3, for which the “Coaggregation (peptide binding)” value worked out at 99%.

For B4, the “Coaggregation (peptide binding)” value is 92%.

Regarding B5, the “Coaggregation (peptide binding)” value worked out at 49.2%.

With B6, the “Coaggregation (peptide binding)” value was determined as 11.4%.

Turning to B7, the “Coaggregation (peptide binding)” value stood at 10.2%.

For B8, the “Coaggregation (peptide binding)” value was 43.4%.

For B9, the “Coaggregation (peptide binding)” value worked out at 111%.

For the molecule B10, the “Coaggregation (peptide binding)” value stood at 78.9%.

Regarding B11, the “Coaggregation (peptide binding)” value is 79.6%.

B12: the “Coaggregation (peptide binding)” value was determined as 4.8%.

In another test the target is T2, biotinylated p53β peptide. Described as above. The source holds these as a separate data set.
Procedure: Subsequently, the ability of the selected peptides to interact with p53β using an in vitro peptide-binding assay was empirically determined. Therefore, the 56 selected peptides were spot-synthesized on a cellulose membrane, which was subsequently incubated with biotinylated p53β peptide (FIG. 17, panel b). After washing, the membrane was treated with streptavidine-HRP to detect p53β binding (FIG. 17, panel c).
Peptides of selected sequences were spot synthesized on PVDF membrane (PepSpot, JPT). The membranes were blocked by 1% BSA in phosphate-buffered saline for 1 hour at room temperature, and then incubated with biotinylated peptide containing the p53-aggregating sequence for 1 hour. After rinsing with 0.1% TWEEN® 20 in 25 mM MES buffer pH 7.0, membranes were incubated in HRP-labeled Streptavidin (Thermo) and visualized with electrochemical luminescence (ECL) system.
In the case of B13, the “Binding intensity (normalized)” value is 8.22 normalized.

Turning to B14, the “Binding intensity (normalized)” value is 19.6 normalized.

As to B15, the “Binding intensity (normalized)” value turned out to be 4.39 normalized.

Consider B16, for which the “Binding intensity (normalized)” value was 26.6 normalized.

As to B17, the “Binding intensity (normalized)” value is 12.9 normalized.

Take B18: the “Binding intensity (normalized)” value is 8.65 normalized.

In the case of B19, the “Binding intensity (normalized)” value was determined as 16.9 normalized.

On to B20, for which the “Binding intensity (normalized)” value amounted to 33.3 normalized.

Regarding B21, the “Binding intensity (normalized)” value was 16.1 normalized.

Regarding B22, the “Binding intensity (normalized)” value is 17.9 normalized.

Take B23: the “Binding intensity (normalized)” value amounted to 15.6 normalized.

For the molecule B24, the “Binding intensity (normalized)” value turned out to be 26.3 normalized.

Take B25: the “Binding intensity (normalized)” value turned out to be 3.67 normalized.

B2: the “Binding intensity (normalized)” value was 77 normalized.

On to B3, for which the “Binding intensity (normalized)” value was determined as 99 normalized.

Turning to B4, the “Binding intensity (normalized)” value turned out to be 92 normalized.

With B26, the “Binding intensity (normalized)” value came out at 100 normalized.

As for B5, the “Binding intensity (normalized)” value came out at 49.2 normalized.

As for B6, the “Binding intensity (normalized)” value was 11.4 normalized.

As for B27, the “Binding intensity (normalized)” value turned out to be 36.7 normalized.

As to B28, the “Binding intensity (normalized)” value turned out to be 32.1 normalized.

B29: the “Binding intensity (normalized)” value stood at 5.27 normalized.

Consider B30, for which the “Binding intensity (normalized)” value turned out to be 8.54 normalized.

As for B31, the “Binding intensity (normalized)” value worked out at 14.1 normalized.

As to B32, the “Binding intensity (normalized)” value turned out to be 23.8 normalized.

B7: the “Binding intensity (normalized)” value amounted to 10.2 normalized.

B33: the “Binding intensity (normalized)” value is 9.72 normalized.

B34: the “Binding intensity (normalized)” value was 17.9 normalized.

On to B35, for which the “Binding intensity (normalized)” value came out at 10.9 normalized.

Consider B36, for which the “Binding intensity (normalized)” value is 30.9 normalized.

For the molecule B8, the “Binding intensity (normalized)” value amounted to 43.4 normalized.

With B9, the “Binding intensity (normalized)” value was 111 normalized.

For the molecule B37, the “Binding intensity (normalized)” value was found to be 6.2 normalized.

Consider B38, for which the “Binding intensity (normalized)” value came to 17.3 normalized.

B39: the “Binding intensity (normalized)” value was found to be 2.39 normalized.

As for B40, the “Binding intensity (normalized)” value amounted to 9.77 normalized.

As to B41, the “Binding intensity (normalized)” value amounted to 5.88 normalized.

For B42, the “Binding intensity (normalized)” value came to 6.48 normalized.

On to B43, for which the “Binding intensity (normalized)” value stood at 7.89 normalized.

Consider B44, for which the “Binding intensity (normalized)” value worked out at 3.03 normalized.

With B45, the “Binding intensity (normalized)” value amounted to 7.06 normalized.

Turning to B46, the “Binding intensity (normalized)” value is 6.47 normalized.

Turning to B10, the “Binding intensity (normalized)” value was 78.9 normalized.

Regarding B11, the “Binding intensity (normalized)” value was found to be 79.6 normalized.

Regarding B47, the “Binding intensity (normalized)” value came out at 19.8 normalized.

In the case of B48, the “Binding intensity (normalized)” value was found to be 14.7 normalized.

As for B49, the “Binding intensity (normalized)” value was determined as 12.1 normalized.

B50: the “Binding intensity (normalized)” value is 10.2 normalized.

With B51, the “Binding intensity (normalized)” value is 6.72 normalized.

With B52, the “Binding intensity (normalized)” value was found to be 40.2 normalized.

In the case of B53, the “Binding intensity (normalized)” value came to 26.4 normalized.

As for B54, the “Binding intensity (normalized)” value is 6.81 normalized.

As for B55, the “Binding intensity (normalized)” value was found to be 17.2 normalized.

Take B56: the “Binding intensity (normalized)” value stood at 3.95 normalized.

Consider B57, for which the “Binding intensity (normalized)” value was 1.55 normalized.

Take B12: the “Binding intensity (normalized)” value came to 4.81 normalized.
